Data taken from patent US20150259380A1 (SANFORD BURNHAM MEDICAL RESEARCH INSTITUTE, published 2015).
Ends that are not written are not given here.

T1: p32 in 4T1 breast tumor extracts (mouse, UniProt O35658 71-278)
T1 construct: Endogenous protein from tumor extract
T1 sequence (looked up): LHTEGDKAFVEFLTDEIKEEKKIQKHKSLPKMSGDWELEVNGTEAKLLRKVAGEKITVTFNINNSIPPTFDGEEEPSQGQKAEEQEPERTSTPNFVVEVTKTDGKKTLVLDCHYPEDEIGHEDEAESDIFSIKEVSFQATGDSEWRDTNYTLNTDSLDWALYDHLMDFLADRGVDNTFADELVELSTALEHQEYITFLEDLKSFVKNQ

T2: recombinant human NRP1 (R&D), purified (human, UniProt O14786-2 22-644, limits assumed)
T2 construct: Bought protein; also called purified NRP1; immobilized NRP1
T2 sequence (looked up): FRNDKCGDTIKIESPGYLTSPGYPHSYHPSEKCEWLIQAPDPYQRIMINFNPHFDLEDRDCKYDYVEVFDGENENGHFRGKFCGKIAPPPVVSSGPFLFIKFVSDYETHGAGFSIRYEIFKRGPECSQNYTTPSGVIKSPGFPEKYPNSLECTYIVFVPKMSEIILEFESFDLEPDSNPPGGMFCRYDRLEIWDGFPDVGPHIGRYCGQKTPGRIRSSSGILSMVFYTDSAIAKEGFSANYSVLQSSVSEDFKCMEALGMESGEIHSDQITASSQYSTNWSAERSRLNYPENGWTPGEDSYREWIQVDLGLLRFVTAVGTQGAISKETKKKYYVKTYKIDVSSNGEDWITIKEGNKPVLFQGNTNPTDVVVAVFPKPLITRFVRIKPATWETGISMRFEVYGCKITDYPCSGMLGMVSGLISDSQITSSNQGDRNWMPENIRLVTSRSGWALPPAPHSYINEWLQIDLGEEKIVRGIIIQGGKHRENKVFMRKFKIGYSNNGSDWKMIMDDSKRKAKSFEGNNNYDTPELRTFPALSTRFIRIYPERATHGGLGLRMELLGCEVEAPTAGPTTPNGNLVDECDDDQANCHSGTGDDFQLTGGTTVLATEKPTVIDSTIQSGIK

T3: recombinant human NRP2 Fc chimera (R&D), purified (human, UniProt O60462 23-864)
T3 construct: Bought Fc chimera; also called purified NRP2; neuropilin-2; Fc part of the bought chimera not given; not described
T3 sequence (looked up): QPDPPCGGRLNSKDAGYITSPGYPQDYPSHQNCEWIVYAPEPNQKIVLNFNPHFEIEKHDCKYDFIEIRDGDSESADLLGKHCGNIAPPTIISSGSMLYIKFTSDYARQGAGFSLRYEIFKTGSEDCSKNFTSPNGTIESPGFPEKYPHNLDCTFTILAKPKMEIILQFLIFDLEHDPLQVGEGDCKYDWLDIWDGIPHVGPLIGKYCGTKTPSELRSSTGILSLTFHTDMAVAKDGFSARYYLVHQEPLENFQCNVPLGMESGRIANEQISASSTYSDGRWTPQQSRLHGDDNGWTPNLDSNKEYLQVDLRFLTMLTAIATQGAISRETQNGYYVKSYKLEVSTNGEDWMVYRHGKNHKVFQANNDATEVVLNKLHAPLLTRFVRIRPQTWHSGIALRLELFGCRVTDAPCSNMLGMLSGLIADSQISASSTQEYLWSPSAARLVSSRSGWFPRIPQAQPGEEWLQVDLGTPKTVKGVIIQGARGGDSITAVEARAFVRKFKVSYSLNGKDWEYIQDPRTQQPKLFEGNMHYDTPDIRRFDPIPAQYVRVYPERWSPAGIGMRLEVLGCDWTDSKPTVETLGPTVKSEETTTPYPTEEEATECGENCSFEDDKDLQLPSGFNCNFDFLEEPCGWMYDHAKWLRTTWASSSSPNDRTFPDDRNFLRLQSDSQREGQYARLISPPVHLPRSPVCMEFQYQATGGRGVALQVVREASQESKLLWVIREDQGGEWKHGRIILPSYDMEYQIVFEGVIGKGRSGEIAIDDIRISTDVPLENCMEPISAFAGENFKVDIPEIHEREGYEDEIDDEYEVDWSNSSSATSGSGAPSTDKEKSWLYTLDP

B1: LyP-1 phage (T7 phage displaying full-length LyP-1, CGNKRTRGC) (peptide)
peptide: CGNKRTRGC
modifications: also: cyclic nonapeptide, ring not given here, displayed on T7 phage
notes: LyP-1 is described as a cyclic nonapeptide; also called intact LyP-1

Experiments:
[1] = molecular target: T1, p32 in 4T1 breast tumor extracts; assay: affinity chromatography of 4T1 tumor extracts on immobilized tLyP-1
[2] = molecular target: T2, recombinant human NRP1 (R&D), purified; assay: phage binding to NRP1-coated microtiter wells, plaque titration (FIG. 2)
Protocol: (§1) Microtiter wells (Costar) were coated with 5 μg/mL of purified NRP1 or NRP2, blocked with PBS supplemented with 0.5% BSA and incubated with 10⁸ plaque-forming units (pfu) of phage in 100 μL of PBS/0.05% Tween 20 for 20 h at 37° C. After six washes in PBS/0.05% Tween 20, bound phage was eluted with 200 μL of 1 M Tris-HCl (pH 7.5)/0.5% SDS for 30 min and quantified by a plaque assay (titration).

[3] = molecular target: T3, recombinant human NRP2 Fc chimera …; assay: phage binding to NRP2-coated microtiter wells, plaque titration (FIG. 3A)
Protocol: B. MDA-MB-435 cells were incubated with phage at 4° C. to assess NRP2 binding. […] Binding is expressed as percentage of binding in control conditions. (mean±SEM; n=4/group; * p<0.05; **, p<0.01).
as §1

[4] = molecular target: T4, NRP1 on human tumor cells (DU145 prostate carcinoma cells; PPC1 prostate tumor cells) (human, UniProt O14786 22-923); assay: phage binding to DU145 cells at 4 C with or without anti-NRP1 (FIG. 1B)
T4 construct: whole, on cells; DU145 express NRP1 but not NRP2; PPC1 express very high NRP1 and low NRP2; also called neuropilin-1; CendR receptor

[5] = molecular target: T4, NRP1 on human tumor cells (DU145 …); assay: 10^9 pfu phage on cultured PPC1 cells, anti-T7 staining, confocal microscopy
Protocol: Phage were detected by staining with anti-T7 phage polyclonal antibody. Nuclei were stained with DAPI. […] Cells were co-stained for NRP1 and nuclei were stained with DAPI. […] Non-conjugated neutravidin was used as a control. Nuclei were stained with DAPI. Cells were analyzed by confocal microscopy.

Binder | binding as fold over control (insertless) phage [2] [fold] | binding as fold over control (insertless) phage [3] [fold] | binding result [4] | other results
CGNKRTR (the coupling is not described) [tLyP-1 affinity matrix (immobilized tLyP-1 peptide)] | – | – | – | binding result [1]: no binding
RPARPAR [RPARPAR phage (T7 phage displaying the prototypic CendR peptide RPARPAR)] | 276 | 29 | – | binding ratio over the control phage [2]: 280 fold
CGNKR [CGNKR phage (truncated LyP-1, amino acids 1-5 of SEQ ID NO:10)] | – | – | no binding | –
CGNK [CGNK phage (truncated LyP-1, amino acids 1-4 of SEQ ID NO:10)] | – | – | no binding | –
CGNKRTR (also called CGNKRTR phage; phage tLyP-1) [tLyP-1 phage (T7 phage displaying CGNKRTR, truncated LyP-1)] | 119 | 8 | – | binding as fold over insertless control phage [2]: ~120 fold
B1 | 1.6 | 0.6 | – | binding result [2]: no binding; binding result [3]: no binding; binding result [5]: no binding
